Measured values as given in patent US20160264649A1.

Tests used:
Assay in all cases: cell-based or functional assay
[1] = target: HIV-1 MGRM-C-009 Env on pseudovirus (HIV-1)
[2] = target: HIV-1 98CN009 Env on pseudovirus (HIV-1)
[3] = target: HIV-1 MGRM-F1-013 Env (HIV-1)
[4] = target: HIV-1 MGRM-F1-022 Env (HIV-1)
[5] = target: HIV-1 93IN905 Env on pseudovirus (HIV-1)
[6] = target: HIV-1 QH0692.42 (Acute) Env on pseudovirus (HIV-1)
[7] = target: HIV-1 92BR020 Env (HIV-1)
[8] = target: HIV-1 MGRM-Chronic-B-004 Env on pseudovirus (HIV-1)
[9] = target: HIV-1 MGRM-AG-005 Env (HIV-1)
[10] = target: HIV-1 MGRM-AG-003 Env (HIV-1)
[11] = target: HIV-1 93MW959 Env on pseudovirus (HIV-1)
[12] = target: HIV-1 MGRM-C-010 Env on pseudovirus (HIV-1)
[13] = target: HIV-1 MGRM-Chronic-B-011 Env on pseudovirus (HIV-1)
[14] = target: HIV-1 MGRM-C-025 Env on pseudovirus (HIV-1)
[15] = target: HIV-1 MGRM-F1-016 Env (HIV-1)
[16] = target: HIV-1 MGRM-Chronic-B-002 Env on pseudovirus (HIV-1)
[17] = target: HIV-1 MGRM-AE-002 Env (HIV-1)
[18] = target: HIV-1 MGRM-F1-021 Env (HIV-1)
[19] = target: HIV-1 MGRM-AE-001 Env (HIV-1)
[20] = target: HIV-1 TRJ0.58 (Acute) Env on pseudovirus (HIV-1)
[21] = target: HIV-1 SF162 Env on pseudovirus (HIV-1) (UniProt P19550)
[22] = target: HIV-1 Env of pseudovirus isolate MGRM-G-001 (subtype G) (HIV-1)
[23] = target: HIV-1 Env of isolate 98CN009 (subtype CRF07_BC) (HIV-1)
[24] = target: HIV-1 Env of isolate 97ZA012 (subtype C) (HIV-1)
[25] = target: HIV-1 Env of isolate MGRM-D-012 (subtype D) (HIV-1)
[26] = target: HIV-1 Env of isolate APV_6 (subtype B) (HIV-1)
[27] = target: HIV-1 Env of isolate MGRM-D-004 (subtype D) (HIV-1)
[28] = target: HIV-1 Env of pseudovirus isolate MGRM-G-027 (subtype G) (HIV-1)
[29] = target: HIV-1 Env of isolate MGRM-D-008 (subtype D) (HIV-1)
[30] = target: HIV-1 Env of isolate MGRM-D-028 (subtype D) (HIV-1)
[31] = target: HIV-1 Env of isolate 98IN022 (subtype C) (HIV-1)
[32] = target: HIV-1 Env of isolate MG RM-C-028 (subtype C) (HIV-1)
[33] = target: HIV-1 Env of isolate MG RM-C-024 (subtype C) (HIV-1)
[34] = target: HIV-1 Env of isolate MGRM-F1-010 (subtype F) (HIV-1)
[35] = target: HIV-1 Env of isolate 92WR021 (subtype A) (HIV-1)
[36] = target: HIV-1 Env of isolate 92TH021 (subtype AE) (HIV-1)
[37] = target: HIV-1 Env of pseudovirus isolate MGRM-G-015 (subtype G) (HIV-1)
[38] = target: HIV-1 Env of isolate 92WR009 (subtype A) (HIV-1)
[39] = target: HIV-1 Env of isolate MGRM-F1-013 (subtype F) (HIV-1)
[40] = target: HIV-1 Env of isolate MGRM-Chronic-B-008 (subtype B) (HIV-1)
[41] = target: HIV-1 Env of isolate 92WR020 (subtype A) (HIV-1)
[42] = target: HIV-1 Env of isolate MGRM-AE-003 (subtype AE) (HIV-1)
[43] = target: HIV-1 Env of isolate 92UG114 (subtype D) (HIV-1)
[44] = target: HIV-1 Env of isolate MGRM-D-026 (subtype D) (HIV-1)
[45] = target: HIV-1 Env of isolate MGRM-D-016 (subtype D) (HIV-1)
[46] = target: HIV-1 Env of isolate 92UG031 (subtype A) (HIV-1)
[47] = target: HIV-1 Env of pseudovirus isolate MGRM-G-024 (subtype G) (HIV-1)
[48] = target: HIV-1 Env of pseudovirus isolate MGRM-G-019 (subtype G) (HIV-1)

1495_C14 (PGC14) (antibody)
IC50 [1]: > 50 µg/mL
IC50 [2]: 43 µg/mL
IC50 (pseudovirus neutralization) [3]: 6 µg/mL
IC50 (pseudovirus neutralization) [4]: > 50 µg/mL
IC50 [5]: 19 µg/mL
IC50 [6]: > 50 µg/mL
neutralization IC50 [7]: 0.637 µg/mL
IC50 [8]: > 50 µg/mL
IC50 (µg/ml), pseudovirus neutralization [9]: > 50 µg/mL
IC50 (µg/ml), pseudovirus neutralization [10]: > 50 µg/mL
IC50 [11]: > 50 µg/mL
IC50 [12]: > 50 µg/mL
IC50 [13]: > 50 µg/mL
IC50 [14]: > 50 µg/mL
IC50 (pseudovirus neutralization) [15]: > 50 µg/mL
IC50 [16]: > 50 µg/mL
IC50 (µg/ml), pseudovirus neutralization [17]: > 50 µg/mL
IC50 (pseudovirus neutralization) [18]: 46 µg/mL
IC50 (µg/ml), pseudovirus neutralization [19]: > 50 µg/mL
IC50 [20]: > 50 µg/mL
IC50 [21]: < 0.0025 µg/mL

1496_C09 (PG9) (TCN-109) (antibody)
IC50 [2]: 1.07 µg/mL
IC50 [22]: 0.166 µg/mL
IC50 (neutralization) [23]: 0.371 µg/mL
IC50 (pseudovirus neutralization) [3]: 0.56 µg/mL
IC50 (pseudovirus neutralization) [4]: 0.06 µg/mL
IC50 (µg/mL), pseudovirus neutralization [24]: 3.4 µg/mL
IC50 (pseudovirus neutralization) [25]: 16.2 µg/mL
IC50 [5]: 0.03 µg/mL
IC50 [26]: 0.181 µg/mL
IC50 (pseudovirus neutralization) [27]: 0.06 µg/mL
IC50 [28]: 7 ng/mL
IC50 (µg/ml), pseudovirus neutralization [9]: 29.7 µg/mL
IC50 (pseudovirus neutralization) [29]: 11.5 µg/mL
IC50 (µg/ml), pseudovirus neutralization [10]: 9.71 µg/mL
IC50 (pseudovirus neutralization) [30]: 20.2 µg/mL
IC50 [11]: 0.04 µg/mL
IC50 (µg/mL), pseudovirus neutralization [31]: 0.003 µg/mL
IC50 (µg/mL), pseudovirus neutralization [32]: 0.067 µg/mL
IC50 (µg/mL), pseudovirus neutralization [33]: 0.227 µg/mL
IC50 (pseudovirus neutralization) [34]: 0.012 µg/mL
IC50 [12]: 12.4 µg/mL
IC50 [14]: 0.17 µg/mL
IC50 (pseudovirus neutralization) [35]: 0.027 µg/mL
IC50 (pseudovirus neutralization) [36]: 0.059 µg/mL
IC50 (pseudovirus neutralization) [15]: 0.58 µg/mL
IC50 [16]: 1.41 µg/mL
IC50 [37]: 6.6 µg/mL
IC50 (pseudovirus neutralization) [38]: 0.05 µg/mL
IC50 (pseudovirus neutralization) [39]: 1.25 µg/mL
IC50 [40]: 8.78 µg/mL
IC50 (pseudovirus neutralization) [41]: 0.141 µg/mL
IC50 (pseudovirus neutralization) [42]: 0.044 µg/mL
IC50 (µg/ml), pseudovirus neutralization [17]: 0.04 µg/mL
IC50 (pseudovirus neutralization) [43]: 40.6 µg/mL
IC50 (pseudovirus neutralization) [44]: 23.7 µg/mL
IC50 (pseudovirus neutralization) [45]: 0.098 µg/mL
IC50 (pseudovirus neutralization) [46]: 3.6 µg/mL
IC50 (µg/ml), pseudovirus neutralization [19]: 2.97 µg/mL
IC50 [20]: 0.43 µg/mL
IC50 [47]: 0.163 µg/mL
IC50 [48]: 14.6 µg/mL

b12 (antibody)
IC50 [1]: > 50 µg/mL
IC50 [2]: 1.52 µg/mL
IC50 (pseudovirus neutralization) [3]: > 50 µg/mL
IC50 (pseudovirus neutralization) [4]: > 50 µg/mL
IC50 [5]: 21.4 µg/mL
IC50 [6]: 0.73 µg/mL
neutralization IC50 [7]: 27.5 µg/mL
neutralization IC90 [7]: > 50 µg/mL
IC50 [8]: 0.26 µg/mL
IC50 (µg/ml), pseudovirus neutralization [9]: > 50 µg/mL
IC50 (µg/ml), pseudovirus neutralization [10]: > 50 µg/mL
IC50 [11]: > 50 µg/mL
IC50 [12]: > 50 µg/mL
IC50 [13]: 2.11 µg/mL
IC50 [14]: > 50 µg/mL
IC50 (pseudovirus neutralization) [15]: > 50 µg/mL
IC50 [16]: 0.86 µg/mL
IC50 (µg/ml), pseudovirus neutralization [17]: 17.1 µg/mL
IC50 (pseudovirus neutralization) [18]: > 50 µg/mL
IC50 (µg/ml), pseudovirus neutralization [19]: 25.9 µg/mL
IC50 [20]: > 50 µg/mL
IC50 [21]: 0.02 µg/mL
